The results in this text go back to publication doi:10.1101/2025.06.14.659664 (bioRxiv, 2025).

Numbering of substitutions follows the chain as printed. Names and notes keep the numbering of the source.

The target in the experiment is UbcH8 (UniProt O14933 1-153). Description: NMR titration.
UbcH8, sequence (O14933 whole entry): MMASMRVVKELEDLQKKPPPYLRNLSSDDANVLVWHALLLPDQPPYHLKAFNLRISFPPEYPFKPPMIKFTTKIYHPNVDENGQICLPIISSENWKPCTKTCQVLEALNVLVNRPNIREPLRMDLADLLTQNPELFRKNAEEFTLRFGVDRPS

B1: GBI-Uba7-UFD fusion protein (human Uba7 ubiquitin-fold domain, residues 903-1011), wild type (domain or fragment, UniProt P41226 903-1011, looked up)
chain: IQTFHHLKWTSWDRLKVPAGQPERTLESLLAHLQEQHGLRVRILLHGSALLYAAGWSPEKQAQHLPLRVTELVQQLTGQAPAPGQRVLVLELSCEGDDEDTAFPPLHYE
Take B1: the binding result is on record as “binds”.

B2: GBI-Uba7-UFD A1004C mutant (domain or fragment, human, UniProt P41226 903-1011, looked up)
chain: B1 chain with A102C
With B2, the binding result is reported as “binds”.
